Results: PMC10206189 (2023)

T1: mouse Plexin-B1 (20–535)-6xHis (mouse, UniProt Q8CJH3 20-535)
T1 chain: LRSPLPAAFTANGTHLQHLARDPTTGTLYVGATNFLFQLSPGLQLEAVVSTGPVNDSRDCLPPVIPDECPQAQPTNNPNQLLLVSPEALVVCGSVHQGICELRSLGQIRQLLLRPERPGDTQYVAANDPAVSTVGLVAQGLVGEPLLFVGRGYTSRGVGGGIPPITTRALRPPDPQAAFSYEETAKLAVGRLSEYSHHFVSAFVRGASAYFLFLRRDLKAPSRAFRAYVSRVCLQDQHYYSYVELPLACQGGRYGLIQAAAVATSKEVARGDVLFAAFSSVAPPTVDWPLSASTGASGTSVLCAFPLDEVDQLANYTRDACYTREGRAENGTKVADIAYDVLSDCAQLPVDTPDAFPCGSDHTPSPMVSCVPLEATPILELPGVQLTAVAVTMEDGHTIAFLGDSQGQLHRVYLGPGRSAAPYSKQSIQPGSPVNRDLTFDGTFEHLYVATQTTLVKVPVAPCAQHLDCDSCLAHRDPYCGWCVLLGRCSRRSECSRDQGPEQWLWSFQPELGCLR

B1: VHH14-Fc (Fc fusion)
chain: QVQLQESGGGLVQAGGSLRLSCAASGFTLGYYAIGWFRQAPGKEREEVSCINASGGSTFYEDSVKGRFTISRDNAKNTVFLQMNRLKPEDTAVYYCAAACEVVAVGYWGQGTQVTVSA
B2: VHH15-Fc (Fc fusion)
chain: QVQLQESGGGLVQPGGSLRLSCAASGFRLDYYAIGWFRQAPGKEREGVLCISSSGGSINYADSVKGRFTISRDNAKNTVYLQMNSLKPEDTAVYYCGASSYNTQRAECYGMDYWGKGTQVTVSA

Molecular target: T1, mouse Plexin-B1 (20–535)-6xHis
Experiment: BLI

Binder | koff
B1 | 1.66e-05 s⁻¹
B2 | 0.002 s⁻¹
